Measured values published in PMC8809517, “Cofactor-independent RNA editing by a synthetic S-type PPR protein”.
Substitutions are numbered along the chain they refer to.

What was measured:
Assay in all cases: high-throughput RNA pulldown from lysate on Ni-NTA beads; HRP: 50 mM Tris pH 8, 150 mM NaCl, 1 mM beta-mercaptoethanol, 50 ug/ml BSA, 3 ug/ml yeast RNA, 0.5% heparin; ITC and FP: Tris pH 8, 200 mM KCl, 5% glycerol; MST: 50 mM Tris pH 8, 200 mM NaCl, 1 mM DTT, BSA, heparin, 0.05% Tween 20
Conditions in all cases: tags: N-terminal His-eGFP
[1] = target: T1, GFP-9S library array, motif 4 ND N98E;D124Y (synthetic construct, N98E;D124Y)
T1 chain: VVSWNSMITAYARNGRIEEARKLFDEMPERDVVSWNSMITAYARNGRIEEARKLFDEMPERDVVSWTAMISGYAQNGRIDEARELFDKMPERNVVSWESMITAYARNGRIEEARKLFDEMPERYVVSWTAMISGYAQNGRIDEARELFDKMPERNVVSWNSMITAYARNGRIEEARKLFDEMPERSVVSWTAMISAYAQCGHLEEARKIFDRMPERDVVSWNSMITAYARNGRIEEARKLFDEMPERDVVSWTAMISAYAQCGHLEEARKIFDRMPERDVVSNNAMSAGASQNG

[2] = target: T2, GFP-9S library array, motif 4 ND N98G;D124W (synthetic construct, N98G;D124W)
T2 chain: T1 chain with E98G, Y124W

[3] = target: T3, GFP-9S library array, motif 4 ND N98P;D124Y (synthetic construct, N98P;D124Y)
T3 chain: T1 chain with E98P

[4] = target: T4, GFP-9S library array, motif 4 ND N98K;D124P (synthetic construct, N98K;D124P)
T4 chain: T1 chain with E98K, Y124P

[5] = target: T5, GFP-9S library array, motif 4 ND N98I;D124K (synthetic construct, N98I;D124K)
T5 chain: T1 chain with E98I, Y124K

Binder	Kd ([1]; label: 5' Cy5) [nM]	Kd ([2]; label: 5' Cy5) [nM]	Kd ([3]; label: 5' Cy5) [nM]	Kd ([4]; label: 5' Cy5) [nM]	Kd ([5]; label: 5' Cy5) [nM]	Kd ([1]; label: 5' IRDye 800CW) [nM]	Kd ([2]; label: 5' IRDye 800CW) [nM]	Kd ([3]; label: 5' IRDye 800CW) [nM]	Kd ([4]; label: 5' IRDye 800CW) [nM]	Kd ([5]; label: 5' IRDye 800CW) [nM]
AUUACACGUGA (ssRNA) [Cy5-rpoA]	231	49.7	146	107	131	–	–	–	–	–
AUUAGACGUGA (ssRNA) [Cy5-rpoA-G]	187	69.1	168	105	121	–	–	–	–	–
AUUAAACGUGA (ssRNA) [IR-rpoA-A]	–	–	–	–	–	450	74.5	416	194	197
AUUAUACGUGA (ssRNA) [IR-rpoA-U]	–	–	–	–	–	480	67	299	76.4	183
